According to paper PMC4539046 (Neuropharmacology, 2015):
Where no end group is shown, it is not given here.

Experiments:
Assay in all cases: AlphaScreen or HTRF
GST-PSD95(1–392) [1] = biological target: T1, GST-PSD95(1–392) (UniProt P31016 1-392)
His-PSD95(1–392) = His-PSD95(1–392) (UniProt P31016 1-392)
GST-PSD95(1–392) [2] = biological target: T1, GST-PSD95(1–392); remark: listed apart in the source

B1: His-nNOS(1–299) (domain or fragment, UniProt P29476-1 1-299, looked up)
chain: MEENTFGVQQIQPNVISVRLFKRKVGGLGFLVKERVSKPPVIISDLIRGGAAEQSGLIQAGDIILAVNDRPLVDLSYDSALEVLRGIASETHVVLILRGPEGFTTHLETTFTGDGTPKTIRVTQPLGPPTKAVDLSHQPSASKDQSLAVDRVTGLGNGPQHAQGHGQGAGSVSQANGVAIDPTMKSTKANLQDIGEHDELLKEIEPVLSILNSGSKATNRGGPAKAEMKDTGIQVDRDLDGKSHKAPPLGGDNDRVFNDLWGKDNVPVILNNPYSEKEQSPTSGKQSPTKNGSPSRCPR
Question: How did the EC50 (GST-PSD95(1–392) [1]) turn out when B1 was run?
Answer: 30 nM

Question: For SLKPGTVLPPPPYRHRNTVV (peptide, UniProt Q15303 1289-1308, looked up, not fully specified (N-terminus); also: biotin (position not given here)) [Biot-ErbB4(1289–1308)], which EC50 (His-PSD95(1–392)) is on record?
Answer: 10 nM

B2: nNOS(1–130) without any tag (domain or fragment, UniProt P29476-1 1-130, looked up)
chain: MEENTFGVQQIQPNVISVRLFKRKVGGLGFLVKERVSKPPVIISDLIRGGAAEQSGLIQAGDIILAVNDRPLVDLSYDSALEVLRGIASETHVVLILRGPEGFTTHLETTFTGDGTPKTIRVTQPLGPPT
Question: With B2 as the binder, how does the IC50 (GST-PSD95(1–392) [2]) read?
Answer: 30 nM
